B1: portal protein gp8 of bacteriophage T7 (natural protein, Escherichia coli bacteriophage T7, UniProt P03728 1-536, looked up)
chain: MAEKRTGLAEDGAKSVYERLKNDRAPYETRAQNCAQYTIPSLFPKDSDNASTDYQTPWQAVGARGLNNLASKLMLALFPMQTWMRLTISEYEAKQLLSDPDGLAKVDEGLSMVERIIMNYIESNSYRVTLFEALKQLVVAGNVLLYLPEPEGSNYNPMKLYRLSSYVVQRDAFGNVLQMVTRDQIAFGALPEDIRKAVEGQGGEKKADETIDVYTHIYLDEDSGEYLRYEEVEGMEVQGSDGTYPKEACPYIPIRMVRLDGESYGRSYIEEYLGDLRSLENLQEAIVKMSMISSKVIGLVNPAGITQPRRLTKAQTGDFVTGRPEDISFLQLEKQADFTVAKAVSDAIEARLSFAFMLNSAVQRTGERVTAEEIRYVASELEDTLGGVYSILSQELQLPLVRVLLKQLQATQQIPELPKEAVEPTISTGLEAIGRGQDLDKLERCVTAWAALAPMRDDPDINLAMIKLRIANAIGIDTSGILLTEEQKQQKMAQQSMQMGMDNGAAALAQGMAAQATASPEAMAAAADSVGLQPGI
notes: portal protein gp8, Escherichia coli bacteriophage T7; domains clip (294-334), stem (335-356 and 269-293), wing (1-268, 357-427), crown (428-492), C-terminal helical barrel; Native protein in the virion; dodecamer at one vertex; The C-terminal barrel is not seen in capsid II; also called T7 portal; source: in mature T7 phage and T7 capsid II particles purified from cells; copies: 12
B2: adaptor protein gp11 of bacteriophage T7 (natural protein, Escherichia coli bacteriophage T7, UniProt P03746 1-196, looked up)
chain: MRSYDMNVETAAELSAVNDILASIGEPPVSTLEGDANADAANARRILNKINRQIQSRGWTFNIEEGITLLPDVYSNLIVYSDDYLSLMSTSGQSIYVNRGGYVYDRTSQSDRFDSGITVNIIRLRDYDEMPECFRYWIVTKASRQFNNRFFGAPEVEGVLQEEEDEARRLCMEYEMDYGGYNMLDGDAFTSGLLTR
notes: adaptor protein gp11, Escherichia coli bacteriophage T7; Native protein in the virion; dodecameric ring; also called tail adaptor; source: in mature T7 phage purified from cells; copies: 12
B3: tail fiber gp17 of bacteriophage T7 (natural protein, Escherichia coli bacteriophage T7, UniProt P03748 1-553, looked up)
chain: MANVIKTVLTYQLDGSNRDFNIPFEYLARKFVVVTLIGVDRKVLTINTDYRFATRTTISLTKAWGPADGYTTIELRRVTSTTDRLVDFTDGSILRAYDLNVAQIQTMHVAEEARDLTTDTIGVNNDGHLDARGRRIVNLANAVDDRDAVPFGQLKTMNQNSWQARNEALQFRNEAETFRNQAEGFKNESSTNATNTKQWRDETKGFRDEAKRFKNTAGQYATSAGNSASAAHQSEVNAENSATASANSAHLAEQQADRAEREADKLENYNGLAGAIDKVDGTNVYWKGNIHANGRLYMTTNGFDCGQYQQFFGGVTNRYSVMEWGDENGWLMYVQRREWTTAIGGNIQLVVNGQIITQGGAMTGQLKLQNGHVLQLESASDKAHYILSKDGNRNNWYIGRGSDNNNDCTFHSYVHGTTLTLKQDYAVVNKHFHVGQAVVATDGNIQGTKWGGKWLDAYLRDSFVAKSKAWTQVWSGSAGGGVSVTVSQDLRFRNIWIKCANNSWNFFRTGPDGIYFIASDGGWLRFQIHSNGLGFKNIADSRSVPNAIMVENE
notes: tail fiber protein gp17, Escherichia coli bacteriophage T7; only the N-terminus (a jelly-roll barrel and a 22-residue alpha-helix) was resolved; Native protein in the virion; six trimers a phage; The distal parts of the fibers were too flexible to be resolved; source: in mature T7 phage purified from cells
B4: nozzle protein gp12 of bacteriophage T7 (natural protein, Escherichia coli bacteriophage T7, UniProt P03747 1-794, looked up)
chain: MALISQSIKNLKGGISQQPDILRYPDQGSRQVNGWSSETEGLQKRPPLVFLNTLGDNGALGQAPYIHLINRDEHEQYYAVFTGSGIRVFDLSGNEKQVRYPNGSNYIKTANPRNDLRMVTVADYTFIVNRNVVAQKNTKSVNLPNYNPNQDGLINVRGGQYGRELIVHINGKDVAKYKIPDGSQPEHVNNTDAQWLAEELAKQMRTNLSDWTVNVGQGFIHVTAPSGQQIDSFTTKDGYADQLINPVTHYAQSFSKLPPNAPNGYMVKIVGDASKSADQYYVRYDAERKVWTETLGWNTEDQVLWETMPHALVRAADGNFDFKWLEWSPKSCGDVDTNPWPSFVGSSINDVFFFRNRLGFLSGENIILSRTAKYFNFYPASIANLSDDDPIDVAVSTNRIAILKYAVPFSEELLIWSDEAQFVLTASGTLTSKSVELNLTTQFDVQDRARPFGIGRNVYFASPRSSFTSIHRYYAVQDVSSVKNAEDITSHVPNYIPNGVFSICGSGTENFCSVLSHGDPSKIFMYKFLYLNEELRQQSWSHWDFGENVQVLACQSISSDMYVILRNEFNTFLARISFTKNAIDLQGEPYRAFMDMKIRYTIPSGTYNDDTFTTSIHIPTIYGANFGRGKITVLEPDGKITVFEQPTAGWNSDPWLRLSGNLEGRMVYIGFNINFVYEFSKFLIKQTADDGSTSTEDIGRLQLRRAWVNYENSGTFDIYVENQSSNWKYTMAGARLGSNTLRAGRLNLGTGQYRFPVVGNAKFNTVYILSDETTPLNIIGCGWEGNYLRRSSGI
notes: nozzle protein gp12, Escherichia coli bacteriophage T7; Native protein in the virion; hexameric tube; source: in mature T7 phage purified from cells

Target: the molecule itself
Experiment: cryo-EM structure; mature T7 phage purified from cells; icosahedral, symmetry-mismatch and local reconstructions (shell 3.5 Å, asymmetric 7 Å, portal-tail complex 3.8 Å, core 6.0 Å)

| Protein | stoichiometry N |
| --- | --- |
| B1 | 12 |
| B2 | 12 |
| B3 | 3 |
| B4 | 6 |

Source: publication PMC7196576, “Structural changes of a bacteriophage upon DNA packaging and maturation” (Protein & Cell, 2020)
